According to publication PMC7790415, “Loss of endocytosis-associated RabGEF1 causes aberrant morphogenesis and altered autophagy in photoreceptors leading to retinal degeneration” (PLoS Genetics, 2020):
Values joined by “and” are separate entries in the source; they are usually repeats but may differ in a detail not shown here. Equal values may be shown once.

Biological target: T1, RabGEF1 (mouse (endogenous in retina), UniProt Q9JM13 1-491)
T1 construct: RabGEF1 (Rabex-5), mouse, endogenous protein of retinal extracts, immunoprecipitated with anti-RabGEF1 antibody; Endogenous protein; also called Rabex-5; Rabex5; source: endogenous, mouse retina extract (control retina)
T1 sequence (Q9JM13 whole entry): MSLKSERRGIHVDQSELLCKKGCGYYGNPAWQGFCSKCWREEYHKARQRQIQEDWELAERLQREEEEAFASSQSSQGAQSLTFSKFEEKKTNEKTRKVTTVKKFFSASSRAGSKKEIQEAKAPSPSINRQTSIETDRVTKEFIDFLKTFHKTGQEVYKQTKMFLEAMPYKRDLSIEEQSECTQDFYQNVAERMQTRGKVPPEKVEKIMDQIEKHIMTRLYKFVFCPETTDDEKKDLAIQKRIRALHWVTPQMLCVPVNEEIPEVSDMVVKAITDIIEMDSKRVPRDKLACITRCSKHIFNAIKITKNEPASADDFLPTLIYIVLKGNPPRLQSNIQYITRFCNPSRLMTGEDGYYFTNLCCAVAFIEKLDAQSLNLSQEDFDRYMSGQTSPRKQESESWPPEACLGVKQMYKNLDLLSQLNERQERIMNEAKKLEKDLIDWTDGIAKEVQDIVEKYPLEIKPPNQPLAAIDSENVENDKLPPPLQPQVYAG
Assay: affinity purification with mass spectrometry; anti-RabGEF1 and IgG immunoprecipitates from control and Rabgef1-/- mouse retinal lysates; trypsin digest, LC-MS on Orbitrap Lumos (n = 2)
Conditions: partners not purified

B1: Rabaptin-5 (natural protein, mouse (endogenous in retina), UniProt O35551 1-862, looked up)
chain: MAQPGPAPQPDVSLQQRVAELEKINAEFLRAQQQLEQEFNQKRAKFKELYLAKEEDLKRQNAVLQAAQDDLGHLRTQLWEAQAEMENIKAIATVSENTKQEAIDEVKRQWREEVASLQAIMKETVRDYEHQFHLRLEQERAQWAQYRESAEREIADLRRRLSEGQEEENLENEMKKAQEDAEKLRSVVMPMEKEIAALKDKLTEAEDKIKELEASKVKELNHYLEAEKSCRTDLEMYVAVLNTQKSVLQEDAEKLRKELHEVCHLLEQERQQHNQLKHTWQKANDQFLESQRLLMRDMQRMEIVLTSEQLRQVEELKKKDQEEDEQQRVNKRKDNKKTDTEEEVKIPVVCALTQEESSTPLSNEEEHLDSTHGSVHSLDADLMLPSGDPFSKSDNDMFKDGLRRAQSTDSLGTSSSLQSKALGYNYKAKSAGNLDESDFGPLVGADSVSENFDTVSLGSLQMPSGFMLTKDQERAIKAMTPEQEETASLLSSVTQGMESAYVSPSGYRLVSETEWNLLQKEVHNAGNKLGRRCDMCSNYEKQLQGIQIQEAETRDQVKKLQLMLRQANDQLEKTMKEKQELEDFLKQSAEDSSHQISALVLRAQASEVLLEELQQSFSQAKRDVQEQMAVLMQSREQVSEELVRLQKDNDSLQGKHSLHVSLQLAEDFILPDTVEVLRELVLKYRENIVHVRTAADHMEEKLKAEILFLKEQIQAEQCLKENLEETLQLEIENCKEEIASISSLKAELERIKVEKGQLESTLREKSQQLESLQEMKVNLEEQLKKETAAKATVEQLMFEEKNKAQRLQTELDVSEQVQRDFVKLSQTLQVQLERIRQADSLERIRAILNDTKLTDINQLPET
notes: Rabaptin-5 (also known as Rabep1), mouse, endogenous protein of retinal extracts; Endogenous protein; also called Rabep1; source: endogenous, mouse retina extract (control retina)
- stoichiometry N: 0.5 Rabaptin-5 per RabGEF1 (printed as RabGEF1:Rabaptin-5 2:1) and 2 Rabaptin-5 per RabGEF1 (printed as RabGEF1:Rabaptin-5 1:2)
